Experimental data published in patent publication US20250188166A1 (BRIGHT PEAK THERAPEUTICS, published 2025).
Like-named read-outs stand apart in the source and are kept apart here.

Legend:
[1] = biological target: T1, recombinant Human Fc gamma RIIIA/CD16a Protein (human, UniProt P08637 17-208, limits assumed); experiment: ELISA; antibody coated, His-tagged receptor titrated
T1 construct: also called FcγRIIIa (CD16)
Procedure: (§1) The interaction of the unmodified and of conjugated antibodies with human Fc gamma receptors I (FcγRI/CD64), with human Fc gamma receptors IIa (FcγRIIa/CD32a), with inhibitory human Fc gamma receptors IIb (FcγRIIb/CD32b), and with human Fc gamma receptors III FcγRIIIa/CD16 were measured by ELISA.
(§2) Briefly, Corning high-binding half-area plates (Fisher Scientific, Reinach, Switzerland) were coated overnight at 4° C. with 25 ul of unmodified and of conjugated anti-PD1 antibodies at 2.5 μg/ml in PBS. Plates were then washed four times with 100 ul of PBS-0.02% Tween20. Plates surfaces were blocked with 25 ul of PBS-0.02% Tween20-1% BSA at 37° C. during 1h. Plates were then washed four times with 100 ul of PBS-0.02% Tween20. Then twenty-five microliters of either recombinant Human Fc gamma RI/CD64 Protein (R&D systems, 1257-FC-050, CF), recombinant Human Fc gamma RIIA/CD32a (H167) Protein (R&D systems, 9595-CD-050, CF), recombinant Human Fc gamma RIIB/CD32b Avi-tag Protein (R&D systems, AVI1875-050, CF), or recombinant Human Fc gamma RIIIA/CD16a Protein (R&D systems, 4325-FC-050; CF) were added in five-fold serial dilutions ranging from 1000 nM to 0.001 nM into PBS-0.02% Tween20-0.1% BSA and incubated at 37° C. during 2h. Plates were then washed four times with 100 ul of PBS-0.02% Tween20. Twenty-five microliters of a 1/500 HRP-anti-His antibody in PBS-0.02% Tween20-0.1% BSA (R&D systems, anti-HIS-HRP Ab, #MAB050H) were added to each well and plates were incubated at Room Temperature during 1h. Plates were then washed four times with 100 ul of PBS-0.02% Tween20. Fifty microliters of TMB substrate reagent (#CL07, Merck, Buchs, Switzerland) were added to each well and incubated at 37° C. during 5 min. After 5 min at 37° C., Horseradish peroxidase reaction was stopped by adding 50 ul/well of 0.5M H2SO₄ stop solution. ELISA signal was then measured at 450 nm on an EnSpire plate reader from Perkin Elmer (Schwerzenbach, Switzerland).

[2] = biological target: T2, recombinant Human Fc gamma RIIA/CD32a (H167) Protein (human, UniProt P12318 36-218, limits assumed); experiment: as above
T2 construct: also called FcγRIIa (CD32a)
T2 sequence (looked up): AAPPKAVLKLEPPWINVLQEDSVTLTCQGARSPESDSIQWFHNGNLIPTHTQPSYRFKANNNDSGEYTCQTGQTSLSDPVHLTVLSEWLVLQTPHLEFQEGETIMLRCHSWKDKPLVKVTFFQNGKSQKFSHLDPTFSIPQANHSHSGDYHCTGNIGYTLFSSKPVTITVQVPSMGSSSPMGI
Procedure: as §1, §2

[3] = biological target: T3, recombinant Human Fc gamma RIIB/CD32b Avi-tag Protein (human, UniProt P31994 46-217); experiment: as above
T3 construct: also called FcγRIIb (CD32b)
T3 sequence (looked up): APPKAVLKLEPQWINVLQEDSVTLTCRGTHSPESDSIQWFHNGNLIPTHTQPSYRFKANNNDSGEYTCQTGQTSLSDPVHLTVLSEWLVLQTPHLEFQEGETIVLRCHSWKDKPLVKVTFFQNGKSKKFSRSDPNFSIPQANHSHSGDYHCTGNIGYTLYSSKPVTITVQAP
Procedure: as §1, §2

[4] = biological target: T4, recombinant Human Fc gamma RI/CD64 Protein (human, UniProt P12314 16-288); experiment: as above
T4 construct: also called FcγRI/(CD64); human Fc gamma receptor I
Procedure: as §1, §2

[5] = biological target: T5, recombinant biotinylated human FcRn (human, UniProt P55899 24-297; P61769 21-119, limits assumed, biotinylated); experiment: AlphaLISA competition at pH 6; competitor human IgG acceptor beads
T5 construct: Kit reagent; also called human neonatal Fc receptor
Procedure: (§3) The interaction of the unmodified and of conjugated anti-PD1 antibodies with the human neonatal Fc receptor (FcRn) at pH 6 was measured using the AlphaLISA® Human FcRn Binding Kit (AL3095C) from Perkin Elmer (Schwerzenbach, Switzerland).
(§4) After 90 min at 23° C. in the dark, AlphaLISA® signal was measured on an EnSpire plate reader (Excitation at 680 nm, Emission at 615 nm) from Perkin Elmer (Schwerzenbach, Switzerland).

[6] = biological target: T5, recombinant biotinylated human FcRn; experiment: AlphaLISA competition at pH 6: test antibody titrated against human IgG acceptor beads for biotinylated human FcRn on streptavidin donor beads; normalized signal
[7] = biological target: T5, recombinant biotinylated human FcRn; experiment: AlphaLISA competition at pH 6; competitor human IgG acceptor beads; remark: listed apart in the source
Procedure: as §3, §4

[8] = biological target: human PD-1 on Jurkat T cells (human, UniProt Q15116 25-288); experiment: cell-based or functional assay
[9] = biological target: T6, Biotinylated Recombinant Human PD-1/CD279-Fc Chimera (human, UniProt Q15116 25-167, biotinylated); experiment: ELISA: antibody coated on the plate (5 µg/ml), biotinylated human PD-1-Fc titrated (x-axis, Concentration (nM)), streptavidin-HRP/TMB, 450 nm
T6 construct: Bought (Biolegend #789406); also called recombinant biotinylated human PD-1

[10] = biological target: T5, recombinant biotinylated human FcRn; experiment: AlphaLISA competition at pH 6: test antibody titrated against human IgG acceptor beads for biotinylated human FcRn on streptavidin donor beads; loss of signal
Procedure: as §3, §4

[11] = biological target: T4, recombinant Human Fc gamma RI/CD64 …; experiment: ELISA: antibody coated (2.5 µg/ml), His-tagged recombinant human FcγRI/CD64 titrated (x-axis), anti-His-HRP/TMB, 450 nm
Procedure: as §1
as §2, with “Plates were then washed four times with 100 ul of PBS-0.02% Tween20. Twenty-five microliters of a 1/500 HRP-anti-His antibody in PBS-0.02% Tween20-0.1% BSA (R&D systems, anti-HIS-HRP Ab, #MAB050H) were added to each well and plates were incubated at Room Temperature during 1h. Plates were then washed four times with 100 ul of PBS-0.02% Tween20. Fifty microliters of TMB substrate reagent (#CL07, Merck, Buchs, Switzerland) were added to each well and incubated at 37° C. during 5 min. After 5 min at 37° C., Horseradish peroxidase reaction was stopped by adding 50 ul/well of 0.5M H2SO₄ stop solution.” left out

Kd [1]: 1710 nM | Kd [2]: 1350 nM | Kd [3]: 2630 nM | Kd [4]: 0.315 nM | Kd [5]: 6 nM | IC50 (read off the curve) [6]: ~5 nM | Kd [7]: 6 nM | EC50 (read off the curve) [8]: ~2 nM | EC50 (read off the curve) [9]: ~0.03 nM | IC50 (read off the curve) [10]: ~5 nM | EC50 (read off the curve) [11]: ~0.2 nM
B1: LZM-009 (antibody, human IgG4 S228P, kappa)
heavy: not shown
light: EIVLTQSPATLSLSPGERATISCRASKGVSTSGYSYLHWYQQKPGQAPRLLIYLASYLESGVPARFSGSGSGTDFTLTISSLEPEDFATYYCQHSRELPLTFGTGTKVEIKRTVAAPSVFIFPPSDEQLKSGTASVVCLLNNFYPREAKVQWKVDNALQSGNSQESVTEQDSKDSTYSLSSTLTLSKADYEKHKVYACEVTHQGLSSPVTKSFNRGEC
notes: IgG4 anti-PD-1 antibody; also called CMP2000
